Data from article PMC8983666, “Structural and biochemical characterisation of the Providencia stuartii arginine decarboxylase shows distinct polymerisation and regulation” (Communications Biology, 2022).

Legend:
N=C(N)NCCC[C@H](N)C(=O)O = assay: purified protein; settings: pH 5 (100 mM acetic acid-sodium acetate), 100 mM NaCl, 0.1 mM PLP, 10% glycerol, 20 °C, 10 nM Adc, decarboxylation to agmatine, parentheses = 2.5%-97.5% confidence interval
[1] = molecular target: Providencia stuartii arginine decarboxylase Adc (Providencia stuartii); assay: cryo-EM structure; isolated Adc decamer, about 0.25 mg/mL, 25 mM MES, 150 mM NaCl, 1 mM DTT, 0.1 mM PLP, pH 6.5; D5 symmetry
[2] = molecular target: Providencia stuartii arginine decarboxylase Adc (Providencia stuartii); assay: mass photometry; Refeyn OneMP; 30 nM Adc at pH 5.0 and 20 nM Adc at pH 6.5; only the decamer and species below it analysed

| Substance | Km (N=C(N)NCCC[C@H](N)C(=O)O) | kcat (N=C(N)NCCC[C@H](N)C(=O)O) | stoichiometry N [1] | stoichiometry N [2] |
| --- | --- | --- | --- | --- |
| Providencia stuartii arginine decarboxylase (Adc) (Providencia stuartii) | 0.331 (0.28, 0.38) mM | 102 (97, 108) s^-1 |  |  |
| Providencia stuartii arginine decarboxylase Adc (enzyme) |  |  | 10 | 10 |
